Experimental data taken from patent US20190071668, “COMPOSITIONS AND METHODS FOR IDENTIFICATION, ASSESSMENT, PREVENTION, AND TREATMENT OF CANCER USING SLNCR ISOFORMS” (Dana-Farber Cancer Institute, Inc., published 2019).

Target: Androgen receptor (AR) (UniProt P10275 P10275:1-920)
Test: EMSA

Androgen receptor (AR), sequence (P10275 whole entry, one chain of several): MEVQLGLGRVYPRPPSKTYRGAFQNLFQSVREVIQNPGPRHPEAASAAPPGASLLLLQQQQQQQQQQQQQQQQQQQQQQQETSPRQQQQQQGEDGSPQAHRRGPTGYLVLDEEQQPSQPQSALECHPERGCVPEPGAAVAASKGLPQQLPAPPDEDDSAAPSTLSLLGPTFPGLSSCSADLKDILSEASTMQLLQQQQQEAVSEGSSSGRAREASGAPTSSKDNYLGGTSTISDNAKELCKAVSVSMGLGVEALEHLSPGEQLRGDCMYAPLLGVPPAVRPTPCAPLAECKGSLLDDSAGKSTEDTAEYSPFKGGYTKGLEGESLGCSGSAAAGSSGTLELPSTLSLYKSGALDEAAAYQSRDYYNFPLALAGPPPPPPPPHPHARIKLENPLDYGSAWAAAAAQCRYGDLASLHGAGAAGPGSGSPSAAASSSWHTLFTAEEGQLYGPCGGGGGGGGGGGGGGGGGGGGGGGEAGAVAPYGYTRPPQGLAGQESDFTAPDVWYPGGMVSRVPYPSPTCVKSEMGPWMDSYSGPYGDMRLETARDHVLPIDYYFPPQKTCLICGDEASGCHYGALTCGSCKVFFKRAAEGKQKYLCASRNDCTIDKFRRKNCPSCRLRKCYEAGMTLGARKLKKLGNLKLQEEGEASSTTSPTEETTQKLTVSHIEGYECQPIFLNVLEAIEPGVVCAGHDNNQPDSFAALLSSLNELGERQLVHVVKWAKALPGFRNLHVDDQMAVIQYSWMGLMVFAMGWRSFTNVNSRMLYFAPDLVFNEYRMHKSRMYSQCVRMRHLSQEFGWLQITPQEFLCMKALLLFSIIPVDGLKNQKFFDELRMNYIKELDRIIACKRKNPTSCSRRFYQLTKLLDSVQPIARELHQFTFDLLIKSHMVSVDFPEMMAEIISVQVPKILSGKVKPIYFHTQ

Binder	binding result
UCUCUCUCUCUCUCUCUCUC (ssRNA) [(UC)10]	no binding
UUCUUUCUUUCUUUCUUUCU (ssRNA) [(UUCU)5]	no binding
CCCUCCCUCCCUCCCUCCCU (ssRNA) [(CCCU)5]	no binding
